Assay results from patent US20020177203A1, “Alpha2 subunit of prolyl 4-hydroxylase” (priority 1996, published 2002).

B1: mouse/human type 2 prolyl 4-hydroxylase tetramer (α22β2) (Mus musculus) (protein)
chain: WVQAEFFTSIGHMTDLIYAEKDLVQSLKEYILVEEAKLAKIKSWASKMEALTSRSAADPEGYLAHPVNAYKLVKRLNTDWPALGDLVLQDASAGFVANLSVQRQFFPTDEDESGAARALMRLQDTYKLDPDTISRGELPGTKYQAMLSVDDCFGLGRSAYNEGDYYHTVLWMEQVLKQLDAGEEATVTKSLVLDYLSYAVFQLGDLHRAVELTRRLLSLDPSHERAGGNLRYFERLLEEERGKSLSNQTDAGLATQENLYERPTDYLPERDVYESLCRGEGVKLTPRRQKKLFCRYHHGNRVPQLLIAPFKEEDEWDSPHIVRYYDVMSDEEIERIKEIAKPKLARATVRDPKTGVLTVASYRVSKSSWLEEDDDPVVARVNRRMQHITGLTVKTAELLQVANYGMGGQYEPHFDFSRSDDEDAFKRLGTGNRVATFLNYMSDVEAGGATVFPDLGAAIWPKKGTAVFWYNLLRSGEGDYRTRHAACPVLVGCKWVSNKWFHERGQEFLRPCGTTEVD
notes: the cDNA clones, considered in combination, cover the whole coding region of the mouse α2 subunit; made in house; host or cells: Spodoptera frugiperda Sf9 insect cells (baculovirus pVL1392 construct, co-infection with PDI/β virus); 0.1% Triton X-100 extract
B2: human type 1 prolyl 4-hydroxylase tetramer (α12β2) (Homo sapiens) (protein)
chain: HPGFFTSIGQMTDLIHTEKDLVTSLKDYIKAEEDKLEQIKKWAEKLDRLTSTATKDPEGFVGHPVNAFKLMKRLNTEWSELENLVLKDMSDGFISNLTIQRQYFPNDEDQVGAAKALLRLQDTYNLDTDTISKGNLPGVKHKSFLTAEDCFELGKVAYTEADYYHTELWMEQALRQLDEGEISTIDKVSVLDYLSYAVYQQGDLDKALLLTKKLLELDPEHQRANGNLKYFEYIMAKEKDVNKSASDDQSDQKTTPKKKGVAVDYLPERQKYEMLCRGEGIKMTPRRQKKLFCRYHDGNRNPKFILAPAKQEDEWDKPRIIRFHDIISDAEIEIVKDLAKPRLRRATISNPITGDLETVHYRISKSAWLSGYENPVVSRINMRIQDLTGLDVSTAEELQVANYGVGGQYEPHFDFARKDEPDAFKELGTGNRIATWLFYMSDVSAGGATVFPEVGASVWPKKGTAVFWYNLFASGEGDYSTRHAACPVLVGNKWVSNKWLHERGQEFRRPCTLSELE
notes: made in house; host or cells: Spodoptera frugiperda Sf9 insect cells (baculovirus co-infection); 0.1% Triton X-100 extract

Experiments:
[1] = substrate: O=C1O[C@H]([C@@H](O)CO)C(O)=C1O; test: Prolyl 4-hydroxylase activity assay (decarboxylation of 2-oxo[1-14C]glutarate), type 2 enzyme; assay type: biochemical; settings: other: α22β2 (mouse α2, human PDI/β), recombinant enzyme from insect cells; pH 7.8
[2] = substrate: O=C1O[C@H]([C@@H](O)CO)C(O)=C1O; test: Prolyl 4-hydroxylase activity assay (decarboxylation of 2-oxo[1-14C]glutarate), type 1 enzyme; assay type: biochemical, human; settings: other: α12β2, recombinant enzyme from insect cells, 0.1% Triton X-100 extract; pH 7.8

Protein	Km [1] [µM]	Km [2] [µM]
B1	340	–
B2	–	330
